Measurements reported in IntAct's records for PubMed 21134644.

B1: Integrin beta-3 (Homo sapiens), P05106 (parent)
chain: MRARPRPRPLWATVLALGALAGVGVGGPNICTTRGVSSCQQCLAVSPMCAWCSDEALPLGSPRCDLKENLLKDNCAPESIEFPVSEARVLEDRPLSDKGSGDSSQVTQVSPQRIALRLRPDDSKNFSIQVRQVEDYPVDIYYLMDLSYSMKDDLWSIQNLGTKLATQMRKLTSNLRIGFGAFVDKPVSPYMYISPPEALENPCYDMKTTCLPMFGYKHVLTLTDQVTRFNEEVKKQSVSRNRDAPEGGFDAIMQATVCDEKIGWRNDASHLLVFTTDAKTHIALDGRLAGIVQPNDGQCHVGSDNHYSASTTMDYPSLGLMTEKLSQKNINLIFAVTENVVNLYQNYSELIPGTTVGVLSMDSSNVLQLIVDAYGKIRSKVELEVRDLPEELSLSFNATCLNNEVIPGLKSCMGLKIGDTVSFSIEAKVRGCPQEKEKSFTIKPVGFKDSLIVQVTFDCDCACQAQAEPNSHRCNNGNGTFECGVCRCGPGWLGSQCECSEEDYRPSQQDECSPREGQPVCSQRGECLCGQCVCHSSDFGKITGKYCECDDFSCVRYKGEMCSGHGQCSCGDCLCDSDWTGYYCNCTTRTDTCMSSNGLLCSGRGKCECGSCVCIQPGSYGDTCEKCPTCPDACTFKKECVECKKFDRGALHDENTCNRYCRDEIESVKELKDTGKDAVNCTYKNEDDCVVRFQYYEDSSGKSILYVVEEPECPKGPDILVVLLSVMGAILLIGLAALLIWKLLITIHDRKEFAKFEEERARAKWDTANNPLYKEATSTFTNITYRGT

Variants of: B1
Details: with tln1_mouse Tln1, P26039
Chain of tln1_mouse Tln1, P26039 (P26039 whole entry): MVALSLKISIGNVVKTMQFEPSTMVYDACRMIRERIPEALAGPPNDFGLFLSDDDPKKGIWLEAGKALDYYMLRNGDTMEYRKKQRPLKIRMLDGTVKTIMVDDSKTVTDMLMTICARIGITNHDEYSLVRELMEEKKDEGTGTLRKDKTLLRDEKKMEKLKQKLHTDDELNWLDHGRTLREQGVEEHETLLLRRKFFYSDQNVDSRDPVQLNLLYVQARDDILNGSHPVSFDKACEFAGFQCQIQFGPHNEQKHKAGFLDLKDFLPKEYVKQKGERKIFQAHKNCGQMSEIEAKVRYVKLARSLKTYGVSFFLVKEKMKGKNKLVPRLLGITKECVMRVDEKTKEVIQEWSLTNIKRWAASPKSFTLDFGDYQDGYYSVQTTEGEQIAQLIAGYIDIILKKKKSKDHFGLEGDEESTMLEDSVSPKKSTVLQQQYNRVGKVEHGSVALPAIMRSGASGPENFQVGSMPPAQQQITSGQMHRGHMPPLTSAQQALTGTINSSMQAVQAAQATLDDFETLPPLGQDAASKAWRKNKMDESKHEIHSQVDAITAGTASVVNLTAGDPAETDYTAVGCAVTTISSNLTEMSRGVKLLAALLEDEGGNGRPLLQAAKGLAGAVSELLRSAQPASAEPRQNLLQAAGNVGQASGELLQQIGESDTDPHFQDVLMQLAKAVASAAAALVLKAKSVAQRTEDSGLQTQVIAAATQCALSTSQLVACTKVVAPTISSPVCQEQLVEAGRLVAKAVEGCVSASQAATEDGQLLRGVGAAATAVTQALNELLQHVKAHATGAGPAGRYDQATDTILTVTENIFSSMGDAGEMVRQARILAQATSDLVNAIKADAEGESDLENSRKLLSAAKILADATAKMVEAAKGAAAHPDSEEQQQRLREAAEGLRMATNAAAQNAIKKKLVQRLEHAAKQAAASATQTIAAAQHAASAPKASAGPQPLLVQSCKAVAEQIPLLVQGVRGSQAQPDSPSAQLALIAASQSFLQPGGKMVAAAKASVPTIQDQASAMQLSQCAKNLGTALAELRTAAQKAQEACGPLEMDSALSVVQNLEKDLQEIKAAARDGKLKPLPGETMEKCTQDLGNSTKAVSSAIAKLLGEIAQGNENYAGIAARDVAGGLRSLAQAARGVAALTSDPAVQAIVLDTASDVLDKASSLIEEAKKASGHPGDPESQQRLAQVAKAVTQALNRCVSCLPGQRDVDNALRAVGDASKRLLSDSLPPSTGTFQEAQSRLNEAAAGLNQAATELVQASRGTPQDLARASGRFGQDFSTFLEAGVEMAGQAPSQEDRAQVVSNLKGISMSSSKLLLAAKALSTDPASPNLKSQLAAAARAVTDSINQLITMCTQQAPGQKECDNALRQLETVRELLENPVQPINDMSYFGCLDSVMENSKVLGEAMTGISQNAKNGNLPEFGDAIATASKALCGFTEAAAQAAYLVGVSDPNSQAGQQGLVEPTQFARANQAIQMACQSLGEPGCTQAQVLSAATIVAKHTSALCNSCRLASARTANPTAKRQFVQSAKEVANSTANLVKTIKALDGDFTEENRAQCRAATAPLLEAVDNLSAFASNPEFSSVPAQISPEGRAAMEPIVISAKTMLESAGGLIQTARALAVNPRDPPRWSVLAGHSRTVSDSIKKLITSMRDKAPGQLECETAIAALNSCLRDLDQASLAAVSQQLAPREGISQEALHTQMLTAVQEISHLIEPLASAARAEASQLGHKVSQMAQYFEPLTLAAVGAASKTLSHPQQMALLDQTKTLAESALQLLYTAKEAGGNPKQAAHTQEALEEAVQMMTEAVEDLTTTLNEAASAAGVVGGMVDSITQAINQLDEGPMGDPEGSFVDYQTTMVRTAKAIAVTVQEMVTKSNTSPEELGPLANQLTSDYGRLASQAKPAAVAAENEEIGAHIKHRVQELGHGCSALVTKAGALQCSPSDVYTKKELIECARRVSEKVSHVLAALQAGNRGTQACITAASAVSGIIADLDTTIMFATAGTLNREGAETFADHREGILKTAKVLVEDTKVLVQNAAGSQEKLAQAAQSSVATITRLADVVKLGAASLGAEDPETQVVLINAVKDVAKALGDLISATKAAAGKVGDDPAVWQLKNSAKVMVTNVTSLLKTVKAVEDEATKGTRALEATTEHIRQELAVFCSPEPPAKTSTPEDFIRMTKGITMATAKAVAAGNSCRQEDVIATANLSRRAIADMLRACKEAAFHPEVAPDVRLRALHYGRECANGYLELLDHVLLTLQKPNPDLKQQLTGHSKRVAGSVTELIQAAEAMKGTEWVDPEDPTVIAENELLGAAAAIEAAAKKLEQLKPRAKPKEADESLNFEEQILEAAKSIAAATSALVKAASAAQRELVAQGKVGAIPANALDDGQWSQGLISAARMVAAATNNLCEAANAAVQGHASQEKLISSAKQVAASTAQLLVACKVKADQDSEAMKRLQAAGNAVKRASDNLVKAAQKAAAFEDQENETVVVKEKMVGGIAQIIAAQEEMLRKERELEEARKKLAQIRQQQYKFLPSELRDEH

Variant	effect of a mutation on the interaction
F753A;F756A	decreasing interaction
W765A	disrupting interaction
Y773A	decreasing interaction
